{"source": "paper PMC8348221", "about": "“Characterization of the Intramolecular Interactions and Regulatory Mechanisms of the Scaffold Protein Tks4” (International Journal of Molecular Sciences, 2021)", "binders": {"B1": {"name": "Tks4 PRR–SH3_(3) fragment (residues 333–426) (domain or fragment, human, UniProt A1X283 333-426, looked up)", "chain": "GDAKQRSPKMRQRPPPRRDMTIPRGLNLPKPPIPPQVEEEYYTIAEFQTTIPDGISFQAGLKVEVIEKNLSGWWYIQIEDKEGWAPATFIDKYK", "modifications": "NT-647 amine-reactive dye (in the MST only)", "notes": "human Tks4 (SH3PXD2B), residues 333-426: proline-rich region and SH3_(3) domain; The vector has a TEV site after the His-tag; Labelled in the MST, unlabelled in the ITC; source: E. coli Rosetta pLysS, purified"}, "B2": {"name": "Tks4 SH3_(3) domain (residues 371–426) (domain or fragment, human, UniProt A1X283 371-426, looked up)", "chain": "EEYYTIAEFQTTIPDGISFQAGLKVEVIEKNLSGWWYIQIEDKEGWAPATFIDKYK", "modifications": "also: NT-647 amine-reactive dye label, site not given here (MST only)", "notes": "human Tks4 (SH3PXD2B), residues 371-426: third SH3 domain; The vector has a TEV site after the His-tag; also called third SH3 domain; source: E. coli Rosetta pLysS, purified"}, "B3": {"name": "Tks4 PRRL fragment (residues 333–370) (domain or fragment, human)", "chain": "GSHMGDAKQRSPKMRQRPPPRRDMTIPRGLNLPKPPIPPQVE", "notes": "four N-terminal residues that are cloning artifacts; human Tks4 (SH3PXD2B), residues 333-370: proline-rich region with the PTAM (PPPRR) and the PKPPIPP motif; also called wild type PRRL; not shown: His-tag, N-terminal, cleaved"}, "B4": {"name": "Tks4 PRRL^T353E phosphomimetic mutant fragment (domain or fragment, human)", "chain": "B3 chain with T25E", "notes": "four N-terminal residues that are cloning artifacts; human Tks4 (SH3PXD2B), residues 333-370 with the phosphomimetic Thr-to-Glu mutation T353E; not shown: His-tag, N-terminal, cleaved"}, "B5": {"name": "Tks4 PRRS peptide (peptide)", "peptide": "KMRQRPPPRRDMTIPRG", "notes": "human Tks4 (SH3PXD2B), truncated version of PRRL containing only the PTAM; source: synthetic peptide (Fmoc/tBu SPPS, RP-HPLC purified)"}}, "details_in_all_cases": "both partners purified", "key": {"[1]": {"target": "T1, Tks4 PX–SH3_(2) fragment (residues 1–279) (human, UniProt A1X283 1-279)", "T1 construct": "human Tks4 (SH3PXD2B), residues 1-279: PX, SH3_(1) and SH3_(2) domains; The modified pET vector has a TEV site after the His-tag; source: E. coli Rosetta pLysS, purified", "T1 sequence (looked up)": "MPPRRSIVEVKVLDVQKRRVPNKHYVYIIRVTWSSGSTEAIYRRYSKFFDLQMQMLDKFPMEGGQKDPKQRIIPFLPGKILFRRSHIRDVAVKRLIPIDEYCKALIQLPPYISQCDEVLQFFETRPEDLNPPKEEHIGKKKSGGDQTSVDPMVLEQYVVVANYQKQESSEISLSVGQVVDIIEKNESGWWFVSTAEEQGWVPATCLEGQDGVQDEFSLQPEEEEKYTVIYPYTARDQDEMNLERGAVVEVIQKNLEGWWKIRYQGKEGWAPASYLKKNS", "assay": "ITC; PX–SH3_(2) 20 µM in the cell, PRR–SH3_(3) 250 µM in the syringe; 25 °C; PBS with 0.5 mM TCEP; one set of independent binding sites model"}, "[2]": {"target": "T1, Tks4 PX–SH3_(2) fragment (residues …)", "assay": "MST; NT-647-labelled PRR–SH3_(3) constant at 20 nM, titrated with PX–SH3_(2) (16-step 1:2 dilutions from 40 µM); PBS, 0.5 mM TCEP, 0.05% TWEEN 20; room temperature; 1:1 Kd fit"}, "[3]": {"target": "T2, Tks4 PX–SH3_(1) fragment (residues 1–210) (human, UniProt A1X283 1-210)", "T2 construct": "human Tks4 (SH3PXD2B), residues 1-210: PX and SH3_(1) domains; The vector has a TEV site after the His-tag; source: E. coli Rosetta pLysS, purified", "T2 sequence (looked up)": "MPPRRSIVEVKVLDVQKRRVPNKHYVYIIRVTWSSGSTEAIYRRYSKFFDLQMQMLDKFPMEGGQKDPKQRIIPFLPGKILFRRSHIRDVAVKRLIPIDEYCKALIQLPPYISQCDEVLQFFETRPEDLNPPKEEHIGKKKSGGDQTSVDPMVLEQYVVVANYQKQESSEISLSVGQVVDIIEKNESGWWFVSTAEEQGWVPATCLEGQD", "assay": "MST; NT-647-labelled SH3_(3) constant at 20 nM, titrated with PX–SH3_(1) (16-step 2:3 dilutions from 412 µM) or, as a control, with SH3_(1); PBS, 0.5 mM TCEP, 0.05% TWEEN 20; room temperature"}, "[4]": {"target": "T3, Tks4 SH3_(1)–SH3_(2) tandem SH3 fragment (residues 155–279) (human, UniProt A1X283 155-279, NT-647 amine-reactive dye (in the MST only))", "T3 construct": "human Tks4 (SH3PXD2B), residues 155-279: first and second SH3 domains with their linker; The vector has a TEV site after the His-tag; Unlabelled in the tryptophan fluorescence titrations; source: E. coli Rosetta pLysS, purified", "T3 sequence (looked up)": "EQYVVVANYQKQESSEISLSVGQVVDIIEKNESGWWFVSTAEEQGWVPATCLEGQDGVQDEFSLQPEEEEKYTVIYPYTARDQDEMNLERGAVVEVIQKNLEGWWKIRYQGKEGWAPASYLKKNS", "assay": "MST; NT-647-labelled SH3_(1)–SH3_(2) constant at 20 nM, titrated with PRRL (16-step 2:3 dilutions from 166 µM); PBS, 0.5 mM TCEP, 0.05% TWEEN 20; room temperature; standard Kd fit model"}, "[5]": {"target": "T3, Tks4 SH3_(1)–SH3_(2) tandem SH3 …", "assay": "other fluorescence titration; intrinsic tryptophan fluorescence (excitation 295 nm, followed at 340 nm); SH3_(1)–SH3_(2) constant at 5 µM, PRR fragments 1.8–100 µM; PBS, 0.5 mM TCEP, 0.05% TWEEN 20; 1:1 binding model"}, "[6]": {"target": "T3, Tks4 SH3_(1)–SH3_(2) tandem SH3 …", "assay": "other fluorescence titration; intrinsic tryptophan fluorescence (excitation 295 nm, followed at 340 nm); SH3_(1)–SH3_(2) constant at 5 µM, PRR fragments 1.8–100 µM; PBS, 0.5 mM TCEP, 0.05% TWEEN 20; 1:1 binding model", "remark": "listed apart in the source"}}, "note": "Numbering of substitutions follows the chain as printed. Names may count otherwise. Where no end group is shown, it is not given here."}
{"binder": "B1", "values": [{"measurement": "Kd", "setting": "[1]", "value": "0.3 ± 0.2", "unit": "µM"}, {"measurement": "Kd", "setting": "[2]", "value": "~0.24", "unit": "µM"}]}
{"binder": "B2", "values": [{"measurement": "Kd", "setting": "[3]", "value": "> 50", "unit": "µM"}]}
{"binder": "B3", "values": [{"measurement": "Kd", "setting": "[4]", "value": 15, "unit": "µM"}, {"measurement": "Kd", "setting": "[5]", "value": 24, "unit": "µM"}, {"measurement": "Kd", "setting": "[6]", "value": 11, "unit": "µM"}]}
{"binder": "B4", "values": [{"measurement": "Kd", "setting": "[6]", "value": 10, "unit": "µM"}]}
{"binder": "B5", "values": [{"measurement": "Kd", "setting": "[6]", "value": 12, "unit": "µM"}]}
